Source: US20180009908
Changes are numbered by the printed parent chain.

Columns and labels:
[1] = LCMS, IgG1 BsAb co-expression; HCB (matuzumab) homodimer species
[2] = target: matuzumab HC_7.8.60_B + matuzumab LC (IgG1); experiment: LCMS, IgG1 BsAb co-expression; HCA/HCB heterodimer carrying two LC1
[3] = target: BHA10 HC_7.8.60_B + BHA10 LC (IgG1); experiment: as above
[4] = LCMS, IgG1 BsAb co-expression; HCA homodimer species
[5] = target: matuzumab HC_7.8.60_B + matuzumab LC (IgG1); experiment: LCMS, IgG1 BsAb co-expression in HEK293F
[6] = target: BHA10 HC_7.8.60_B + BHA10 LC (IgG1); experiment: LCMS, IgG1 BsAb co-expression in HEK293F
[7] = target: matuzumab HC_7.8.60_B + matuzumab LC (IgG1); experiment: LCMS, IgG1 BsAb co-expression; HCA/HCB heterodimer carrying two LC2
[8] = target: BHA10 HC_7.8.60_B + BHA10 LC (IgG1); experiment: as above
[9] = target: BHA10 HC_20.8.37_B + BHA10 LC (IgG1); experiment: LCMS, IgG1 BsAb co-expression; HCA/HCB heterodimer carrying two LC1
[10] = target: BHA10 HC_20.8_B + BHA10 LC (IgG1); experiment: as above
[11] = target: matuzumab HC_20.8.34_B + matuzumab LC (IgG1); experiment: as above
[12] = target: matuzumab HC_20.8.37_B + matuzumab LC (IgG1); experiment: as above
[13] = target: BHA10 HC_20.8.34_B + BHA10 LC (IgG1); experiment: as above
[14] = target: matuzumab HC_20.8_B + matuzumab LC (IgG1); experiment: as above
[15] = target: BHA10 HC_20.8.37_B + BHA10 LC (IgG1); experiment: LCMS, IgG1 BsAb co-expression in HEK293F
[16] = target: BHA10 HC_20.8_B + BHA10 LC (IgG1); experiment: LCMS, IgG1 BsAb co-expression in HEK293F
[17] = target: matuzumab HC_20.8.34_B + matuzumab LC (IgG1); experiment: LCMS, IgG1 BsAb co-expression in HEK293F
[18] = target: matuzumab HC_20.8.37_B + matuzumab LC (IgG1); experiment: LCMS, IgG1 BsAb co-expression in HEK293F
[19] = target: BHA10 HC_20.8.34_B + BHA10 LC (IgG1); experiment: LCMS, IgG1 BsAb co-expression in HEK293F
[20] = target: matuzumab HC_20.8_B + matuzumab LC (IgG1); experiment: LCMS, IgG1 BsAb co-expression in HEK293F
[21] = target: BHA10 HC_20.8.37_B + BHA10 LC (IgG1); experiment: LCMS, IgG1 BsAb co-expression; HCA/HCB heterodimer carrying two LC2
[22] = target: BHA10 HC_20.8_B + BHA10 LC (IgG1); experiment: as above
[23] = target: matuzumab HC_20.8.34_B + matuzumab LC (IgG1); experiment: as above
[24] = target: matuzumab HC_20.8.37_B + matuzumab LC (IgG1); experiment: as above
[25] = target: BHA10 HC_20.8.34_B + BHA10 LC (IgG1); experiment: as above
[26] = target: matuzumab HC_20.8_B + matuzumab LC (IgG1); experiment: as above
[27] = target: matuzumab HC_7.8_A + matuzumab LC (IgG1); experiment: LCMS, IgG1 BsAb co-expression; HCA/HCB heterodimer carrying two LC1
[28] = LCMS, IgG1 BsAb co-expression; HCA (MetMAb) homodimer species
[29] = target: matuzumab HC_7.8_A + matuzumab LC (IgG1); experiment: LCMS, IgG1 BsAb co-expression in HEK293F
[30] = target: matuzumab HC_7.8_A + matuzumab LC (IgG1); experiment: LCMS, IgG1 BsAb co-expression; HCA/HCB heterodimer carrying two LC2
[31] = target: matuzumab HC_7.8.60_A + matuzumab LC (IgG1); experiment: LCMS, IgG1 BsAb co-expression; HCA/HCB heterodimer carrying two LC1
[32] = target: matuzumab HC_7.8.60_A + matuzumab LC (IgG1); experiment: LCMS, IgG1 BsAb co-expression in HEK293F
[33] = target: matuzumab HC_7.8.60_A + matuzumab LC (IgG1); experiment: LCMS, IgG1 BsAb co-expression; HCA/HCB heterodimer carrying two LC2

B1: matuzumab HC_7.8.60_A + matuzumab LC (IgG1) (protein)
chain 1: QVQLVQSGAEVKKPGASVKVSCKASGYTFTSHWMHWVRYAPGQGLEWIGEFNPSNGRTNYNEKFKSKATMTVDTSTNTAYMELSSLRSEDTAVYYCASRDYDYDGRYFDYWGRGTLVTVSSASTKGPSVFPLAPCSKSTSGGTAALGCLVKDYFPEPVTVSWNSGALTSGVHTFPAVLQSSGLYSLSSVVTVPSSSLGTQTYICNVNHKPSNTKVDKKVEPDSGDKTHTCPPCPAPELLGGPSVFLFPPKPKDTLMISRTPEVTCVVVDVSHEDPEVKFNWYVDGVEVHNAKTKPREEQYNSTYRVVSVLTVLHQDWLNGKEYKCKVSNKALPAPIEKTISKAKGQPREPQVYTLPPSREEMTDNQVSLTCLVKGFYPSDIAVEWESNGQPENNYKTTPPVLMSDGSFFLASKLTVDKSRWQQGNVFSCSVMHEALHNHYTQKSLSLSPGK
chain 2: DIQMTQSPSSLSASVGDRVTITCSASSSVTYMYWYQRKPGDAPKLLIYDTSNLASGVPSRFSGSGSGTDYTFTISSLQPEDIATYYCQQWSSHIFTFGQGTKVEIKRTVAAPSVFIFPPSKEQLKSGTASVVCLLNNFYPREAKVQWKVDNALQSGNSQESVTEQDSKDSTYSLSSTLTLSKADYEKHKVYACEVTHQGLSSPVTKSFNRGEC
- % BB Homodimer (incorrect assembly) [1]: 0%

B2: pertuzumab HC_7.8.60_A + pertuzumab LC (IgG1) (protein)
chain 1: EVQLVESGGGLVQPGGSLRLSCAASGFTFTDYTMDWVRKAPGKGLEWVADVNPNSGGSIYNQEFKGRFTLSVDRSKNTLYLQMNSLRAEDTAVYYCARNLGPSFYFDYWGQGTLVTVSSASTKGPSVFPLAPSSKSTSGGTAALGCLVKDYFPEPVTVSWNSGALTSGVATGPAVLQSSGLYSLSSVVTVPSSSLGTQTYICNVNHKPSNTKVDKKVEPKSCDKTHTCPPCPAPELLGGPSVFLFPPKPKDTLMISRTPEVTCVVVDVSHEDPEVKFNWYVDGVEVHNAKTKPREEQYQSTYRVVSVLTVLHQDWLNGKEYKCKVSNKALPAPIEKTISKAKGQPREPQVYTLPPSREEMTDNQVSLTCLVKGFYPSDIAVEWESNGQPENNYKTTPPVLMSDGSFFLASKLTVDKSRWQQGNVFSCSVMHEALHNHYTQKSLSLSPGK
chain 2: RIQMTQSPSSLSASVGDRVTITCKASQDVSIGVAWYQDKPGKAPKLLIYSASYRYTGVPSRFSGSGSGTDFTLTISSLQPEDFATYYCQQYYIYPYTFGQGTKVEIKGQPKAAPSVTLFPPSSEELQANKATLVCYISDFYPGAVTVAWKADSSPVKAGVETTTPSKQSNNKYAAWSYLSLTPEQWKSHRSYSCQVTHEGSTVEKTVAPTEC
- % AB (2x LC1) (incorrect assembly) [2]: 0%
- % AB (2x LC1) (incorrect assembly) [3]: 0%
- % AA Homodimer (incorrect assembly) ([4]; pertuzumab × BHA10 bispecific): 0.7%
- % AA Homodimer (incorrect assembly) ([4]; pertuzumab × matuzumab bispecific): 0.6%
- % AB (LC1/LC2) (correct IgG BsAb assembly) [5]: 98.1%
- % AB (LC1/LC2) (correct IgG BsAb assembly) [6]: 95.2%
- % AB (2x LC2) (incorrect assembly) [7]: 0%
- % AB (2x LC2) (incorrect assembly) [8]: 2.5%

B3: pertuzumab HC_20.8.26_A + pertuzumab LC (IgG1) (protein)
chain 1: B2 chain 1 with Y351S, D362K, T368M, K372Y, M401D, A409Y, K411V
chain 2: B2 chain 2
- % AB (2x LC1) (incorrect assembly) [9]: 7.5%
- % AB (2x LC1) (incorrect assembly) [10]: 0%
- % AB (2x LC1) (incorrect assembly) [11]: 0%
- % AB (2x LC1) (incorrect assembly) [12]: 0%
- % AB (2x LC1) (incorrect assembly) [13]: 9.7%
- % AB (2x LC1) (incorrect assembly) [14]: 0%
- % AB (LC1/LC2) (correct IgG BsAb assembly) [15]: 89.6%
- % AB (LC1/LC2) (correct IgG BsAb assembly) [16]: 96.9%
- % AB (LC1/LC2) (correct IgG BsAb assembly) [17]: 96.9%
- % AB (LC1/LC2) (correct IgG BsAb assembly) [18]: 97.6%
- % AB (LC1/LC2) (correct IgG BsAb assembly) [19]: 90.3%
- % AB (LC1/LC2) (correct IgG BsAb assembly) [20]: 95.2%
- % AB (2x LC2) (incorrect assembly) [21]: 0%
- % AB (2x LC2) (incorrect assembly) [22]: 0%
- % AB (2x LC2) (incorrect assembly) [23]: 0%
- % AB (2x LC2) (incorrect assembly) [24]: 0%
- % AB (2x LC2) (incorrect assembly) [25]: 0%
- % AB (2x LC2) (incorrect assembly) [26]: 0%

B4: MetMAb HC_7.8_B + MetMAb LC (IgG1) (protein)
chain 1: EVQLVESGGGLVQPGGSLRLSCAASGYTFTSYWLHWVRKAPGKGLEWVGMIDPSNSDTRFNPEFKDRFTISADTSKNTAYLQMNSLRAEDTAVYYCATYRSYVTPLDYWGQGTLVTVSSASTKGPSVFPLAPSSKSTSGGTAALGCLVKDYFPEPVTVSWNSGALTSGVATGPAVLQSSGLYSLSSVVTVPSSSLGTQTYICNVNHKPSNTKVDKKVEPKSCDKTHTCPPCPAPELLGGPSVFLFPPKPKDTLMISRTPEVTCVVVDVSHEDPEVKFNWYVDGVEVHNAKTKPREEQYQSTYRVVSVLTVLHQDWLNGKEYKCKVSNKALPAPIEKTISKAKGQPREPQVYTLPPSREEMTKNQVSLVCLVKGFYPSDIAVEWESNGQPENNYKTTPPVLDSDGSFFLYSVLTVDKSRWQQGNVFSCSVMHEALHNHYTQKSLSLSPGK
chain 2: RIQMTQSPSSLSASVGDRVTITCKSSQSLLYTSSQKNYLAWYQDKPGKAPKLLIYWASTRESGVPSRFSGSGSGTDFTLTISSLQPEDFATYYCQQYYAYPWTFGQGTKVEIKGQPKAAPSVTLFPPSSEELQANKATLVCYISDFYPGAVTVAWKADSSPVKAGVETTTPSKQSNNKYAAWSYLSLTPEQWKSHRSYSCQVTHEGSTVEKTVAPTEC
- % AB (2x LC1) (incorrect assembly) [27]: 0%
- % AA Homodimer (incorrect assembly) [28]: 0%
- % AB (LC1/LC2) (correct IgG BsAb assembly) [29]: 100%
- % AB (2x LC2) (incorrect assembly) [30]: 0%

B5: MetMAb HC_7.8.60_B + MetMAb LC (IgG1) (protein)
chain 1: B4 chain 1 with E347R, Q349R
chain 2: B4 chain 2
- % AB (2x LC1) (incorrect assembly) [31]: 9.2%
- % AA Homodimer (incorrect assembly) [28]: 0%
- % AB (LC1/LC2) (correct IgG BsAb assembly) [32]: 90.8%
- % AB (2x LC2) (incorrect assembly) [33]: 0%
